# B1: GST–EB1 (glutathione-S-transferase–end-binding protein 1) (natural protein, human, UniProt Q15691 1-268, looked up)
# chain: MAVNVYSTSVTSDNLSRHDMLAWINESLQLNLTKIEQLCSGAAYCQFMDMLFPGSIALKKVKFQAKLEHEYIQNFKILQAGFKRMGVDKIIPVDKLVKGKFQDNFEFVQWFKKFFDANYDGKDYDPVAARQGQETAVAPSLVAPALNKPKKPLTSSSAAPQRPISTQRTAAAPKAGPGVVRKNPGVGNGDDEAAELMQQVNVLKLTVEDLEKERDFYFGKLRNIELICQENEGENDPVLQRIVDILYATDEGFVIPDEGGPQEEQEEY
# Biological target: T1, MBP–TIP150 (maltose-binding protein–tracking protein 150) (human, UniProt Q5JR59 1-1369)
# T1 sequence (looked up): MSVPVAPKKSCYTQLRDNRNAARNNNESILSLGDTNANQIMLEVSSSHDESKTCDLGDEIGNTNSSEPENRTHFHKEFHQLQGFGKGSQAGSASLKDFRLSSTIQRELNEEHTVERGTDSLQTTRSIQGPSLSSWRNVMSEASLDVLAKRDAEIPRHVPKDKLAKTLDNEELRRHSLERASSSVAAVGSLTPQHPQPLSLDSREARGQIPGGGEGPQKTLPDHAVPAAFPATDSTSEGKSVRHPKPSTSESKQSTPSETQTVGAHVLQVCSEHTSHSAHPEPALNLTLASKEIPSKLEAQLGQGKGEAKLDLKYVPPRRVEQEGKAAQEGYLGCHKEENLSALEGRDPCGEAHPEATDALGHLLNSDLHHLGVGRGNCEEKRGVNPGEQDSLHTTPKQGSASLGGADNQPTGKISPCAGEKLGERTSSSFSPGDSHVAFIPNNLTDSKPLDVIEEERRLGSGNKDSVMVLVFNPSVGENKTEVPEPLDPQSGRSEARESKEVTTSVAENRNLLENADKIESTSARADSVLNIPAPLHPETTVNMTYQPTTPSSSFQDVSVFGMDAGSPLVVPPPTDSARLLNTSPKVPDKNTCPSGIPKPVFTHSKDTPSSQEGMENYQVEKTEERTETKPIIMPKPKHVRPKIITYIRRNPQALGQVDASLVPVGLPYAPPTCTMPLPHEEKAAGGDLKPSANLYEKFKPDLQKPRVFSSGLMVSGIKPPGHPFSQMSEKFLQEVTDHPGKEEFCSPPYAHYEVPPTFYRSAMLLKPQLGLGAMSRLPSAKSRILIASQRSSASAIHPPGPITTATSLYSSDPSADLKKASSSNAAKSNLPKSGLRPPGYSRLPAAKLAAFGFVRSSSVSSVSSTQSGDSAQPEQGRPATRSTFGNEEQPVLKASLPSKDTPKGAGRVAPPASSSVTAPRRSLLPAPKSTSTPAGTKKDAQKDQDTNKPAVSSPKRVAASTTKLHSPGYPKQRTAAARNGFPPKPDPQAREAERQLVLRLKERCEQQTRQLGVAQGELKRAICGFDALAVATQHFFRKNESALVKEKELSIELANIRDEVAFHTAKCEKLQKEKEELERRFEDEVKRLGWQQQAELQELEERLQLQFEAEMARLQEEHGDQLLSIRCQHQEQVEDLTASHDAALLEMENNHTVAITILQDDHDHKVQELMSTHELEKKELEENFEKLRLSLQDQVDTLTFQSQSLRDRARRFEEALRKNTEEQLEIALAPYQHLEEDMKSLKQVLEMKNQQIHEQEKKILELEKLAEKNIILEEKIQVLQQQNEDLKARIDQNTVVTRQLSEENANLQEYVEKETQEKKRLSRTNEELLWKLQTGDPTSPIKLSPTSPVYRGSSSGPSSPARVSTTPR
# Assay: pull-down
binder,measurement,value
B1,binding result,binds

# From paper PMC2699393 (EMBO Reports, 2009)
